Conditions in all cases: 10 mM Na2HPO4 pH 7.3, 22 °C
Substrate in series [1]: C=CC=C(O)C(=O)O
Put plainly: UV steady-state kinetics, enol-keto tautomerization. The series is classed as biochemical, Burkholderia lata.

Substrate in series [2]: CC(=CC=C(O)C(=O)O)C(=O)O
The series is described as above. The format is biochemical, Burkholderia lata.

Substrate in series [3]: O=C(O)C(O)=Cc1ccccc1
Put plainly: purified protein.

Substrate in series [4]: O=C(O)C=CC=C(O)C(=O)O
Description: purified protein.

B1: fused 4-OT (fused 4-oxalocrotonate tautomerase) (Burkholderia lata) (protein)
chain: PTLEVFLPAGHDDARKAELIARLTGATVDSIGAPIESVRVLLTELPATHIGLGGRSAADGAPPSLPVIVAILIAGRTDEQKRALIAALSETSASVLDAPLQATRVMIKDIPNTDFGIGGQTARALGR
For orientation: Km means the concentration of substrate that gives half-maximal velocity. Broadly, the kcat is the maximal rate divided by the concentration of active sites. For orientation: kcat/Km means the second-order rate constant that governs catalysis at low substrate concentration. For B1, in series [1], the Km was found to be 1330 ± 140 µM, the kcat worked out at 170 ± 12 s⁻¹ and the kcat/Km came to 130000 M⁻¹ s⁻¹. Also, in series [2], the Km was determined as 147 ± 9 µM, the kcat is 72 ± 2 s⁻¹ and the kcat/Km was found to be 490000 M⁻¹ s⁻¹.

B2: unfused 4-OT (Burkholderia lata) (protein)
chain 1: PTLEVFLPAGHDDARKAELIARLTGATVDSIGAPIESVRVLLTELPATHIGLGGRSAADGAPPSL
chain 2: PVIVAILIAGRTDEQKRALIAALSETSASVLDAPLQATRVMIKDIPNTDFGIGGQTARALGR
For the protein B2, in the series “purified protein [3]”, the Km turned out to be 346 ± 28 µM, the catalytic constant (kcat) worked out at 19.3 ± 0.7 s⁻¹ and the kcat/Km came out at 56000 M⁻¹ s⁻¹. Moreover, in “purified protein [4]”, the Km amounted to 148 ± 18 µM, the kcat was determined as 105 ± 6 s⁻¹ and the kcat/Km stood at 710000 M⁻¹ s⁻¹.

(Values after article PMC6948721.)
